Reference: IntAct's records for PubMed 22615398

B1: Geminin (Homo sapiens), O75496 (parent)
chain: MNPSMKQKQEEIKENIKNSSVPRRTLKMIQPSASGSLVGRENELSAGLSKRKHRNDHLTSTTSSPGVIVPESSENKNLGGVTQESFDLMIKENPSSQYWKEVAEKRRKALYEALKENEKLHKEIEQKDNEIARLKKENKELAEVAEHVQYMAELIERLNGEPLDNFESLDNQEFDSEEETVEDSLVEDSEIGTCAEGTVSSSTDAKPCI

Variants of: B1
Details: with hxc9_human HOXC9, P31274
hxc9_human HOXC9, P31274, sequence (P31274 whole entry): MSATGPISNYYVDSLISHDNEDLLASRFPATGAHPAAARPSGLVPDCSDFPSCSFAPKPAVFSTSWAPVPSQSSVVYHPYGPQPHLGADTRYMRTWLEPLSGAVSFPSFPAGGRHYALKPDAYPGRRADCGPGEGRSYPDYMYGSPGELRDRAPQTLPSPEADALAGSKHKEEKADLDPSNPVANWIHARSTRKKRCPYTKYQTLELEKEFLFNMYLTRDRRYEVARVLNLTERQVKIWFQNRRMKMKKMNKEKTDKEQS

Row | effect of a mutation on the interaction | Variant
1 | decreasing interaction strength | V181A;E182Q;D183N
2 | decreasing interaction strength | V186A;E187Q;D188N
3 | increasing interaction strength | S184E

Second part, the variant before the results:

Row | Variant | effect of a mutation on the interaction
4 | E177Q;E178Q;E179Q | decreasing interaction strength
5 | E177Q;E178Q;E179Q;E182Q;E187Q;D188N | decreasing interaction strength
